For series [1], the target named is T1, human STS (Homo sapiens, UniProt P08842).
T1 sequence (P08842 22-583): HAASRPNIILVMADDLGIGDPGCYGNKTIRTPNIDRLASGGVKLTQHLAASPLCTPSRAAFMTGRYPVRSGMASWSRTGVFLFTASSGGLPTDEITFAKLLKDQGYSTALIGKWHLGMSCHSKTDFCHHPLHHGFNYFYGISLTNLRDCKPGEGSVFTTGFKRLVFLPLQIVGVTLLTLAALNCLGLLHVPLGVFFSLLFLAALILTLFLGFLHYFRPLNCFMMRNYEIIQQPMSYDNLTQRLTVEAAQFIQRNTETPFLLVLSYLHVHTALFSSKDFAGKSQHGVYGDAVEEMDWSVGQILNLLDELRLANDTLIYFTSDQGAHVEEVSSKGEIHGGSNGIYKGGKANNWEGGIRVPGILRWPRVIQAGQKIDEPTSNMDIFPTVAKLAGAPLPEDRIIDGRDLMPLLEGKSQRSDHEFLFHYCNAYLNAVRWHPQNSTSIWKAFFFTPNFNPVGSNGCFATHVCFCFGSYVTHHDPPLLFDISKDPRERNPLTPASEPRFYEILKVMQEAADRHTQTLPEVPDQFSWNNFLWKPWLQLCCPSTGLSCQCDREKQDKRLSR
Particulars: 5 μM E1-sulfate, 37°C, 15 min, pH 7.0, 10 mM Ca2+; irreversible inhibitor.

The target in series [2] is zebrafish Sts (zfSts, zfSts_tv1) (Danio rerio, UniProt A0ACD6B647). Nature of the series: HPLC of released estrone. Particulars: 5 μM E1-sulfate, 28°C, 15 min, pH 7.0, 10 mM Ca2+; irreversible inhibitor. In kind it is biochemical.
Chain of zebrafish Sts (zfSts, zfSts_tv1) (Danio rerio, UniProt A0ACD6B647) (A0ACD6B647 21-584): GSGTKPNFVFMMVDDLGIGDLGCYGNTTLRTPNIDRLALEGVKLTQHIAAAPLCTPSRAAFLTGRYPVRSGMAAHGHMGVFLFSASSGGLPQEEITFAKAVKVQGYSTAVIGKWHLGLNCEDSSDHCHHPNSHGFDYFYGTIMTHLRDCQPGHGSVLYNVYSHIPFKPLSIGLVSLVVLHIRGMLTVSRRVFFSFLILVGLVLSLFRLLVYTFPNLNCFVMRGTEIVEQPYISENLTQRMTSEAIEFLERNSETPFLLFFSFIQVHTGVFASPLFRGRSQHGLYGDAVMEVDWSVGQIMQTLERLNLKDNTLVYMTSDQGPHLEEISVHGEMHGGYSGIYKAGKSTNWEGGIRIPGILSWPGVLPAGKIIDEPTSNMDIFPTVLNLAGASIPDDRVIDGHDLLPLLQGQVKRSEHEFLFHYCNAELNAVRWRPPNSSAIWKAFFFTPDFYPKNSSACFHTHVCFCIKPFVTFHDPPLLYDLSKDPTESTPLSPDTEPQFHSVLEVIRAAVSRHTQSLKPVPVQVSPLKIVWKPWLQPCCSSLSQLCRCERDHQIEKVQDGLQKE
Series [3] deals with T1, human STS. The experiment in a line: HPLC of released estrone. In kind it is biochemical. Particulars: 5 μM E1-sulfate, 37°C, 15 min, pH 7.0, 10 mM Ca2+; irreversible inhibitor.
Series [4] has as its target zebrafish Sts (zfSts, zfSts_tv1) (Danio rerio, UniProt A0ACD6B647, I88V/L437F/N388K). The experiment in a line: HPLC of released estrone. Particulars: read-out: % inhibition at 0.1 μM. It counts as biochemical.
Series [5] relates to [H][C@@]12CCc3cc(OS(=O)(=O)O)ccc3[C@@]1([H])CC[C@]1(C)[C@@H](O)CC[C@@]21[H]. The experiment in a line: cells, lysate or membranes. Particulars: 28°C, pH 7.0 Hepes, 10 mM Ca2+, 1 mM DTT, labelled compound.
Series [6] relates to C[C@]12CC[C@@H]3c4ccc(OS(=O)(=O)O)cc4CC[C@H]3[C@@H]1CCC2=O. Nature of the series: cells, lysate or membranes. The note with it: 28°C, pH 7.0 Hepes, 10 mM Ca2+, 1 mM DTT, labelled compound.
In series [7] the test system is CC(C)CCC[C@@H](C)[C@H]1CC[C@H]2[C@@H]3CC=C4C[C@@H](OS(=O)(=O)O)CC[C@]4(C)[C@H]3CC[C@]12C. Nature of the series: cells, lysate or membranes. Particulars: 28°C, pH 7.0 Hepes, 10 mM Ca2+, 1 mM DTT, labelled compound.
Series [8] has as its system CC(=O)[C@H]1CC[C@H]2[C@@H]3CC=C4C[C@@H](OS(=O)(=O)O)CC[C@]4(C)[C@H]3CC[C@]12C. Nature of the series: cells, lysate or membranes. Particulars: 28°C, pH 7.0 Hepes, 10 mM Ca2+, 1 mM DTT, labelled compound.
Series [9] relates to [H][C@@]12CC=C3C[C@@H](OS(=O)(=O)O)CC[C@]3(C)[C@@]1([H])CC[C@]1(C)C(=O)CC[C@@]21[H]. The experiment in a line: cells, lysate or membranes. The note with it: 28°C, pH 7.0 Hepes, 10 mM Ca2+, 1 mM DTT, labelled compound.

Like-named read-outs stand apart in the source and are kept apart here.

Chain of zebrafish Sts (zfSts, zfSts_tv1) (Danio rerio, UniProt A0ACD6B647, I88V/L437F/N388K) (A0ACD6B647 21-584, stated change not applied): as the sequence (A0ACD6B647 21-584) above

For the molecule `C[C@]12CC[C@@H]3c4ccc(OS(N)(=O)=O)cc4CC[C@H]3[C@@H]1CCC2=O` [EMATE], the “% inhibition at 0.1 μM” value was “EMATE also inhibited the activity zebrafish Sts_tv1 and human STS” in [1]; “EMATE also inhibited the activity zebrafish Sts_tv1 and human STS” in [2].
As for `NS(=O)(=O)Oc1ccc2c3c(c(=O)oc2c1)CCCCC3` [STX64], the “% inhibition at 0.1 μM” value in [3] came to 93%. In addition, the inhibition at 0.1 µM in series [4] turned out to be 88.3%.
Turning to “zebrafish Sts (zfSts, zfSts_tv1) (Danio rerio; I88V/L437F/N388K)”, the Michaelis-Menten constant (Km) in series [5] amounted to 2.07 ± 0.29 µM; in [6], 4.32 ± 0.49 µM; in [7], 0.62 ± 0.06 µM; in series [8], 0.18 ± 0.01 µM; in [9], 19.38 ± 3.07 µM. For the same molecule, the Vmax stood at 0.00107 µmol/min/mg in series [5]; 0.00126 µmol/min/mg in series [6]; 8.12e-05 µmol/min/mg in [7]; 0.000104 µmol/min/mg in series [8]; 0.000374 µmol/min/mg in series [9].

In general, % inhibition refers to the relative decrease from the control value, in per cent. As usually defined, the inhibition is the share of the control response that was lost under treatment. Usually Km stands for the substrate concentration at which the rate is half of its maximum. For orientation: Vmax means the rate approached at saturating substrate.

These data come from article PMC6289849 (The Journal of steroid biochemistry and molecular biology, 2018).
